According to doi:10.1101/695700:

Tests used:
complement C3 = assay: SPR
[1] = molecular target: recombinant HC1 (rHC1), wild type; heavy chain 1 of inter-α-inhibitor (human) (UniProt P19827); assay: SPR
Chain of recombinant HC1 (rHC1), wild type; heavy chain 1 of inter-α-inhibitor (human) (P19827 35-672): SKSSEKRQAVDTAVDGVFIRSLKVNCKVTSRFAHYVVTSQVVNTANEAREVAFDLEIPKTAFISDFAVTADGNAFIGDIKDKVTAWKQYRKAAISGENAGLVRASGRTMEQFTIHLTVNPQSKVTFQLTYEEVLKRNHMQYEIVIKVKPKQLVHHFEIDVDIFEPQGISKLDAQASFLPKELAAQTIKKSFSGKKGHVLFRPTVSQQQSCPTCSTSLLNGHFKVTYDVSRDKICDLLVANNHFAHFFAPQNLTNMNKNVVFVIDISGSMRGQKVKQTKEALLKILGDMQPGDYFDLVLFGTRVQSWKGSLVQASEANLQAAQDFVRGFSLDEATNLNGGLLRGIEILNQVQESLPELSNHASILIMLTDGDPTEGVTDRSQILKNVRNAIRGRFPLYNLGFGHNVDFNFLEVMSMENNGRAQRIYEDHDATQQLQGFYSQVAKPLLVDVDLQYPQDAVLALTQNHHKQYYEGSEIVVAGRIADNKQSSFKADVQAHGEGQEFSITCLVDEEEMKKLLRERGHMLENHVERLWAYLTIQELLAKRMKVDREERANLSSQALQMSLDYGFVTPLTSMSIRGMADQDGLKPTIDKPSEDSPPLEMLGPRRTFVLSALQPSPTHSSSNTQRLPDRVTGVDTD

Substance | Kd (complement C3) [nM] | Kd [1] [nM]
inter-α-inhibitor (IαI) (from UniProt P19827 35-672; P19823 55-702) (complex) | 660 | –
TGFβ2-LAP (small latent complex of TGFβ2) (from UniProt P61812 21-302) | – | 10
LAP (latency-associated peptide from TGFβ1) (domain or fragment) | – | 2
TGFβ1-LAP (small latent complex of TGFβ1) (from UniProt P01137 30-278) | – | 10
TGFβ3-LAP (small latent complex of TGFβ3) (from UniProt P10600 24-300) | – | 10
